The values below come from PMC3618430 (PLoS ONE, 2013).

Positions count from the first letter of the chain named.

Sequences and labels used below:
B1: A3 Fab displayed on phage (Fab, V domains shown)
VH: QVTLKESGPGILKPSQTLSLTCSFSGFSLSTSGMGVGWIRQSSGKGLEWLANIWWDDDKYYNPSLKSQLTISKDTSRNQVFLKITSVDTADTATYYCARRGEYDAMDYWGQGTSVTVSS
VL: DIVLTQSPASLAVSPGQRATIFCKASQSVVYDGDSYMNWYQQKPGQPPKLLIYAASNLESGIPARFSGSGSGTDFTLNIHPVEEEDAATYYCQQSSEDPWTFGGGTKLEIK
notes: also called clone A3; Fab-phage A3; source: E. coli TG-1 with helper phage KM13, phage PEG-precipitated
B2: A4 Fab displayed on phage (Fab, V domains shown)
VH: B1 VH with S42P, E102K, A105S
VL: DIVLTQSPASLAMSLGQRATISCKASQSVVYDGDSYMNWYQQKPGQPPKLLIYAASNLESGIPARFSGSGSGTDFTLNIHPVEEEDAATYYCQQSSEDPWTFGGGTKLEIK
notes: also called clone A4; Fab-phage A4; source: E. coli TG-1 with helper phage KM13, phage PEG-precipitated
B3: D4 Fab displayed on phage (Fab, V domains shown)
VH: B1 VH with S30N, S42P, Q68H, R77G, T92S, E102D, A105S, M106L
VL: B2 VL with A9G, A12S, M13V, V30D
notes: also called clone D4; Fab-phage D4; source: E. coli TG-1 with helper phage KM13, phage PEG-precipitated
B4: D8 Fab displayed on phage (Fab, V domains shown)
VH: B1 VH with S32P, S42P, A90T, E102N
VL: B2 VL
notes: also called clone D8; Fab-phage D8; source: E. coli TG-1 with helper phage KM13, phage PEG-precipitated

T2 sequence (P02769 25-607): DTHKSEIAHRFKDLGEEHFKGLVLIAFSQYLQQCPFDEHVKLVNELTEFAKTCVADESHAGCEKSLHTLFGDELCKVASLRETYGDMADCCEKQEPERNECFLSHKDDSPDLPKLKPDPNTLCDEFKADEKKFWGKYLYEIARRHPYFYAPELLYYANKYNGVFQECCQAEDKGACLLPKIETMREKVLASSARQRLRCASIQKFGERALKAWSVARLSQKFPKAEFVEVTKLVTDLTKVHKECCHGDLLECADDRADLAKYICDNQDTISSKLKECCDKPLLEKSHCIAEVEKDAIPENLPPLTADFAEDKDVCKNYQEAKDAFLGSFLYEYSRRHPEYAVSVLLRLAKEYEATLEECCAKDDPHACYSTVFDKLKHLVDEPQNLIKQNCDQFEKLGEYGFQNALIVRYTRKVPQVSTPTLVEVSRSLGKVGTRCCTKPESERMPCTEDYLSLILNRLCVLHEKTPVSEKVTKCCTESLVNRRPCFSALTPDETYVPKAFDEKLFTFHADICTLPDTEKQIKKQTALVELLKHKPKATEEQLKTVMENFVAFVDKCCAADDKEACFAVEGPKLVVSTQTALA

The first experiment addresses T1, recombinant A/California/04/2009 H1N1 HA (Influenza A virus A/California/04/2009 …, UniProt C3W5S1, strain).
T1 construct: source: bought: Sino Biological Inc
Briefly: ELISA. To be noted: one partner purified.
Take B1: the binding result is recorded as “no binding”.

Regarding B2, the binding result was “no binding”.

With B3, the binding result is “no binding”.

Regarding B4, the binding result was “no binding”.

The target of the next experiment is recombinant A/Netherlands/219/03 (H7N7) HA (Influenza A virus …, UniProt Q6VMK1, strain). Briefly: ELISA. The following applies: one partner purified.
Regarding B1, the binding result is “no binding”.

Turning to B2, the binding result was “no binding”.

Take B3: the binding result is on record as “no binding”.

As to B4, the binding result is reported as “no binding”.

The next experiment deals with recombinant A/Anhui/1/05 (H5N1) HA (Influenza A virus A/Anhui/1/2005 (H5N1), UniProt Q1WDM0, strain). Briefly: ELISA. To be noted: one partner purified.
With B1, the binding result is “binds”.

B2: the binding result is given as “binds”.

Consider B3, for which the binding result is listed as “binds”.

For B4, the binding result is “binds”.

The target of the next experiment is recombinant A/Turkey/1/2005 (H5N1) HA (Influenza A virus …, UniProt Q207Z6, strain). Briefly: ELISA. To be noted: one partner purified.
Take B1: the binding result is listed as “binds”.

As to B2, the binding result is reported as “binds”.

As for B3, the binding result is recorded as “binds”.

As for B4, the binding result is “binds”.

Another experiment concerns the target T2, bovine serum albumin (Bos taurus, UniProt P02769).
T2 construct: also called BSA
Briefly: ELISA. The following applies: one partner purified.
In the case of B1, the binding result is “no binding”.

With B2, the binding result was “no binding”.

As for B3, the binding result is recorded as “no binding”.

Take B4: the binding result is reported as “no binding”.
